Test results published in doi:10.1101/2020.08.24.265033, “Dipeptidyl peptidase 9 triggers BRCA2 degradation by the N-degron pathway to promote DNA-damage repair” (bioRxiv, 2020).

Target: T1, Human recombinant DPP9 (dipeptidyl peptidase 9), His-tagged (human, UniProt Q86TI2 1-863)
T1 construct: Dipeptidyl peptidase 9, human, recombinant; Held on a Ni chip by its His tag in SPR; used in solution in the pull-down; also called purified DPP9; His-tagged DPP9; source: Sf9 cells, purified essentially as described in Pilla et al. 2012
T1 sequence (Q86TI2 whole entry): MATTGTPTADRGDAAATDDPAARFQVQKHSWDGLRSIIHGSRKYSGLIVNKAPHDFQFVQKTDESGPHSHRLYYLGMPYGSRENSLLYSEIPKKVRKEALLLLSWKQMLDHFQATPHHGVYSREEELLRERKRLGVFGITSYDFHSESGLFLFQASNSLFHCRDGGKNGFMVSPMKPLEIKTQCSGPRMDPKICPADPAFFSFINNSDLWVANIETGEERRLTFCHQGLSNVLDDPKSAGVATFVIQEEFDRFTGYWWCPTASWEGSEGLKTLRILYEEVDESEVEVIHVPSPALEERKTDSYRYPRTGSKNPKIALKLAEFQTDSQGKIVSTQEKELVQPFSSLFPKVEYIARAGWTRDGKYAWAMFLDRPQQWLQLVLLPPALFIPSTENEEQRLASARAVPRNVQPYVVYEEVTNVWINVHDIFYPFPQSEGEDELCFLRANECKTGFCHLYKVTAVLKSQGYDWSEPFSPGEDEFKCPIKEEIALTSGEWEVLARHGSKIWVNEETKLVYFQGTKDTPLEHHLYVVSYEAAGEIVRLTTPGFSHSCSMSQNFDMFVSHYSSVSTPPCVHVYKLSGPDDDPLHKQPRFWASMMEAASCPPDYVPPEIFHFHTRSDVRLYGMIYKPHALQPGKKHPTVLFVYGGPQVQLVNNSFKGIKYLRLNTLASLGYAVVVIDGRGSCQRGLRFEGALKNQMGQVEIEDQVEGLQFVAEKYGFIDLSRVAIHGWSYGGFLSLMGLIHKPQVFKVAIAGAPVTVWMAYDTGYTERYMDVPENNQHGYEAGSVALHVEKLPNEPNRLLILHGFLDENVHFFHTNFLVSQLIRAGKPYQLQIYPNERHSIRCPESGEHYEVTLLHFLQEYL
Assay: SPR; His-tagged DPP9 immobilised on a Ni-loaded NiHC1000m chip; serial dilution of BRCA2 peptides injected; 20 mM HEPES pH 7.4, 150 mM NaCl, 50 µM EDTA, 0.005 % TWEEN-20; 20°C; equilibrium binding analysis
Settings: both partners purified

Kd	Binder
16.8 ± 0.7 µM	MPIGSKERPTFFEIFKTRCNKADLGPISLNWFEELSSEAP (peptide, UniProt P51587 1-40, looked up, BRCA2, human, residues 1-40; also called BRCA2_(1-40) N-terminal peptide; BRAC2_(1-40) peptide; source: synthetic peptide) [BRCA2_(1-40) synthetic peptide (first forty amino acids of BRCA2)]
75.3 ± 4.8 µM	IGSKERPTFFEIFKTRCNKADLGPISLNWFEELSSEAP (peptide, UniProt P51587 3-40, looked up, BRCA2, human, residues 3-40; also called truncated BRCA2_(3-40) peptide; source: synthetic peptide) [BRCA2_(3-40) synthetic peptide (truncated, lacking Met1-Pro2)]
